Reference: a protein production outcome set (Wang et al. 2014)

Test: label from the status in PepcDB records

Row | Sequence | protein production
1 | MQTVGSFSEFLDDMVGRYGPRPAIQYRPRYRTLRWSYLELGTHAAKLASLLDEHGVGSGDRVFLSAENSPHWVAAFFAIAARGAVIVPLNPRSPPEQLANLVRSAGPSLVLASPRRRWEGPPLPVVDIERSGRVPSNRPATRTGPARLAEIIYTSGTTGDPKGVMLTHANLLSDLSAVARAIPLAPDDHVLSLVPLFHVYGQMTSLFCPLAAGCPVSYLTTPTTRSVLEALTHTPVTHLVAVPEVLKTMMDRLESRIGRIPGFLWPLLRGRIRARISGSLRTIVCGGAPLDPVVEEKWWALGFQVLQGYGLTETSPVIAANTPQAHRIGSVGKPLDEVELRIASDGEILVKGPMVMAGYFRDPARTEAAFADGWLKTGDAGRLDADGFLYVYGRKRYMILGPGGENVFPEDIEAVLNRTAGVTDCAVVGLESGGRTLVHAVLLADADEARAAAIVAEANRHLAPHQRIVSWSLWPEPDFPRSVTRKVKKDEVLGRLRREPSTQAVPVGRSTPLRLLLAQVAGTEAGALSDDTRLVPDLGLDSLLRIELVARIEEDLGVCLDEIDIGPLTTVADLENLLVRRQDRMPRVDAHPRWSLSPWASRLRPLAQKVFLQWWIAPFCRLRVSGLEHLAALDGPVIFMANHRSYLDSAVASFALPDRFRYRLAIAAATGVLYTRYRWAVPIGELSLNAFPLPSGPDENIRPGLELIGRLLDDGWNVLIFPEGQMNRGGLGIQPLRRGAGTIGVDMGVPVVPLVIEGTEKVMPPGRIVPRAAAPVSVRFGAPLRAGEAEPHGRMLARIEDALRRLLENSPLEHHHHHH | failed
2 | PSYTVTVATGSQWFAGTDDYIYLSLVGSAGCSEKHLLDKPFYNDFERGAVDSYDVTVDEELGEIQLVRIEKRKYWLNDDWYLKYITLKTPHGDYIEFPCYRWITGDVEVVLRDGRAKLARDDQIHILKQHRRKELETRQKQYRWMEWNPGFPLSIDAKCHKDLPRDIQFDSEKGVDFVLNYSKAMENLFINRFMHMFQSSWNDFADFEKIFVKISNTISERVMNHWQEDLMFGYQFLNGCNPVLIRRCTELPEKLPVTTEMVECSLERQLSLEQEVQQGNIFIVDFELLDGIDANKTDPCTLQFLAAPICLLYKNLANKIVPIAIQLNQIPGDENPIFLPSDAKYDWLLAKIWVRSSDFHVHQTITHLLRTHLVSEVFGIAMYRQLPAVHPIFKLLVAHVRFTIAINTKAREQLICECGLFDKANATGGGGHVQMVQRAMKDLTYASLCFPEAIKARGMESKEDIPYYFYRDDGLLVWEAIRTFTAEVVDIYYEGDQVVEEDPELQDFVNDVYVYGMRGRKSSGFPKSVKSREQLSEYLTVVIFTASAQHAAVNFGQYDWCSWI | failed
3 | MMDNDNSLNKRPTFKRALRNISMTSIFITMMLIWLLLSVTSVLTLKQYAQKNLALTAATMTYSLEAAVVFADGPAATETLAALGQQGQFSTAEVRDKQQNILASWHYTRKDPGDTFSNFISHWLFPAPIIQPIRHNGETIGEVRLTARDSSISHFIWFSLAVLTGCILLASGIAITLTRHLHNGLVEALKNITDVVHDVRSNRNFSRRVSEERIAEFHRFALDFNSLLDEMEEWQLRLQAKNAQLLRTALHDPLTGLANRAAFRSGINTLMNNSDARKTSALLFLDGDNFKYINDTWGHATGDRVLIEIAKRLAEFGGLRHKAYRLGGDEFAMVLYDVQSESEVQQICSALTQIFNLPFDLHNGHQTTMTLSIGYAMTIEHASAEKLQELADHNMYQAKHQRAEKLVR | failed
4 | GIPSLVATAERRMKLVPGSVVMQFASIGFDVAVFELSMALCTGSRLVIVPDESRVAGPELTDFMAAHAVTHAIIPPSLLAALPSGCDVPEGCTVLVGTETVPPELIGRWAERLNLLAAYGLTEATVNNTLWQAQPGWDSAVPIGIP | failed
5 | SNRMTEMHVCLADAIQKDNRPEISNRLFRSNAVEKEILRVQKLLKNAKLAWMFTNCFPNTLDTTVHFRKGSDGKPDTFVYTGDIHAMWLRDSGAQVWPYVQLANSDPELKEMLAGVILRQFKCINIDPYANAFNDGAIPDGHWMSDLTDMKPELHERKWEIDSLCYPLRLAYHYWKTTGDASIFNEEWIQAITNVLKTFKEQQRKDGVGPYKFQRKTERALDTVSNDGLGAPVKPVGLIVSSFRPSDDATTLQFLVPSNFFAVSSLRKAAEILEKVNKKTALSKECKDLAQEVETALKKYAVYNHPKYGKIYAFEVDGFGNHHLMDDANVPSLLAMPYLGDVNVNDPIYQNTRRFVWSEDNPYFFKGKAGEGIGGPHIGYDMVWPMSIMMKAFTSQNDAEIKTCIKMLMDTDAGTGFMHESFHKDNPKKFTRAWFAWQNTLFGELILKLVNEGKVDLLNSIQ | not failed
6 | MKKVIAGLAAASVVGVAVPGMDSAQAQVSNEALKEINGQTQTQTTVTETKTVETKSDLKYTVTADVLNVRSGAGTGHSVISKVKQGQVLQVIGQENGWFKVTVNGQTGYVSGDFVTTGGKTGTTVQQGTGTYTVNVSSLNVRTGPSTSHTVLGSVNKGKTVQVVSEVQDWFKINFNGGTGYVSKDFVTKGGSAVSNQTQQPTTNNNTTTVQTGGSYVVNTGALKVRTGPATYNAVIGGVTNGTVLNVTGAENGWYKINHNGRTGYVSADFVKFVKGGVNNVTNNVQQPVKDVQKPTTGGNTSSIAGFARSLNGSPYRTAGTTPAGFDCSGFIHYVLNQTGHKGARQTVAGYWSSKTKTSNPQPGDLVYFQNTYKSGPSHMGVYLGNGQFISAETDATGVRISSVSNSYWSKHLLGYTKAYLEHHHHHH | failed
7 | MEQYSEACIEACIDCMKACNHCFTKCLEESVQHHLSGCIRLDRECADICALAVKAMQTDSPFMKEICALCADICEACGTECGKHDHDHCQACAKACFTCAEQCRSMAALEHHHHHH | failed
8 | IEVKQLEFPAFKVEIQKWLHFHINWQNDMDYIEKTNHTFYGAYVDNDLKGSICINEQGKISFIFIDKEYRNRGIGSKLLQVARDELNLESLLISFPNNSLLEGFLKKTGFEKNSLAQYEMYVLL | failed
9 | MSKVIIPKIVGHRGVGKEGLAPENTLRSFVLCMERNIPYIETDLRVCKTGEIVLFHGTPEGTIPFYKDGTSRIGDLSLEELKRLDVGGGHTIPSLEELFVAIEEQKFNLKLNLELKGEEWKRKESGDHQRLLLLVEKYHMQERVDYCSFHHEALAHLKALCPDVKITYLFNYMGQPTPLDFVEQTQKACYGDANGVSMLFHYLTKEQVCTAHEKGLSVTVWMPWIFDDSEEDWKKCLELQVDLICSNYPFGLMNFLSNISE | not failed
10 | MNVLDGAALEIGVPTVRTGIAGDGTLISVSGGSGADATPESDRILGALVLDDTHIDAVAVRRRRRGQGIGTALVEAALDRRDRLTAEFDADVRPFYEQLGFDVELLDDEDGRFRGIRK | failed
11 | MSDSWARSPSLSGYARQEGKFRVAIGAPRGDIPGQGDSSMSTQTAVLKKDITPQGSDYEIVRRAIEKISLDYRDQPSLEELAEEVGETPTGLQKLFTRWAGLSPKAFLQAVTLDHARRLLDSGMPLLETSFELGMSGPGRLHDLFVTHEAMSPGDYKTRGAGLTIRYGYHASPFGTALIMATDRGLAGLAFSDPGEERAAFADMSSRWPNAIYVEDLAATGPYAARIFDPTLWRPDQPLHVVMIGTDFQVRVWEALLQIPMGKARTYSSIAASIGAPSASRAVGAANGANPLSFVVPCHRAIGKSGDLTGYHWGLTRKRAILGWEAGQVSS | failed
12 | MTLRTRITLLTAGLLLVAFLVLGFALEGLLRNFLYGSLRTDLKEAANQVVRLLNLGGQALLEAGLPPSLYAEVQLLPEEDPALLAREGGISLQKSPALGSQRLLLQEEAYRELLKRGEVWAYAELPREGHPLRLLVYARKVEVNLSGSVWKGALLVGRPTEDLEATLSQFARIYAGTALFVLLLSLFLARGLVARALEPLEWAARKAEAMSARPEPLPEPETRDEVAALVKALNGMLTRLQEAFEAQTRFLQDASHELRTPITAILGHVGYLLRRTPLTEAQRESLEVVKREAERMGKLVSDLLDLSQSGTWRIRPVPVRVLDLLEEVREEFAKSFDGAILVEAPEDLYVLGDPDRLHQVMANLVSNALKAGARHVWLRAFDLGDKAVVRVEDDGEGIPEEHLPHLFERFYRVDKARDRERGGSGLGLAIVKAILEAHGGEVWVESQVGKGTAFSFSLPASGPPPPPR | failed
13 | MAESKRDYYEVLGVSKDADDAAIKKAYRALAKKYHPDMNPGDAEAEKKFKEASEAYAVLSDAEKRRQYDQFGHAAFEGGAGGAGGFGGFDFNGADFGDIFGDIFGDLFGGGGRRGGRANNGPMKGANIRKSIRITFEEAVFGCKKELEVILKDPCTTCGGTGAKPGTSPETCPKCGGKGQVVYTSQSFFGTVQNVQTCPNCGGSGKVIKEKCTSCSGTGYTSSKKKIEVTIPAGIDNGQSVRIREKGEPGTNGGPRGDLLVEVNVSRHPIFQRQDMHIFSTVPISFAQAALGGDVKIQTVDGAVIYNVKPGTKTDTKVRLKGKGVPSLRNSAVRGDHYVTLVIQTPEKLSAEAKEALRRFDELSGNSLHQNDSNPEKSEKKTKRKGFMDKVKEAFEGED | failed
14 | MKLPLIMLTALIALTACTSSSTGRKQVMLFSDAELDKMGAASFEDMKKKTPISTDKATNDFVQCVAKSITKNVAKSVHQGDWEVVVFDSAQVNAFALPSGKIGVYTGILNVTENQDQLGAIIGHEVGHVIEHHSNERLSANKLQNMGMAAATAAVGLSDVENKGLWMAGLGLGLQYGVIMPYSRAHESEADIVGQDLMARSGFEPSASIKLWQNMAKLSKGAPAEFMSTHPSNKTRINQLTEHLPSAMTLYKTDSRPNCQKPKVIPSPKA | failed
15 | MSKKIILITGASSGFGRLTAEALWSRPPGIRLDARHCRPQRVQCSPALPGTMTLTCAPWSSTSSRRSVDRAIDQIIGEDGRIDVLIHNAPHGVRTRRSIHARAVRRALRYQCAPNASTGRRCRTCAGKSMGFSWISSSSSAGGTPPYLAPYFAAKAHGCHRCAVRTAVALGHRDVDHRPVPSRAAPITSPIPAYRTTTPAAEYEAGPNAGLGEEIKKAFAAIVAGRRCVTGCRCHCSGCGHRVRQARSGCTSTRPKTAPMWDSAFWTGRAEMLHRVGLSDLLKPRALA | not failed
16 | MAMSVKTISPIEAHRLVTGGRAVLVDVRERHEIAREHIDGAIELPLTGFKHGDLGAAHGRKAIFFCHSGGRTRMYAGQIDAKARGVCEPYVLGGGILAWRRAGFPTVQGPKPPSLFQRLFGRKPAD | failed
17 | MHSVHPTPKFSIITVTYNAEKVLEDTIQSVISQTYHHVEYIIVDGASKDGTLSIIDRYRPRITTVVSEPDKGLYDAMNKAISLASGDYLCFLNAGDCFHEDDTLQQMVHSIHGSVLPDVIYGETAIVDKDRHFLHMRRLSAPEKLDWKSFKQGMLVCHQAFFARHTLVEPYDLSYRYSADFDWCIRIMKKAYTLHNTHLTIIDYLDEGMTTQNRKASLKERFRIMAKHYGWISTAAHHAWFVLRLIIKPGQLEHHHHHH | not failed
18 | MSRAANKLTNTAIKNATTEGKAQRKLADGGGLTLVVKPESKVWWLRYRYDGKERTLTLGAYPQTSLKEARAKRDEAKQLLAEGIDPVTHRATHKTKRVEATANTFKAVATEWLKEVHQKAVVEEHYNRNVRRLEQHAFPKLGRRPISEIEPSDILEPLRDIAKTGRRETAKRVKTLIGQVFRYTVSTGRAQRDMTADIRGILPASETKHHAAVVKPDEIADLLKRIDTYWGTPTVCMALELSPLLFLRPGELRTMKWEQIDWDDATWTTERTKNGEPLVVPLARQSIELLSQIQEVNGKWEWVFPGGHSKTKPMSNNAIRTALTRLELHGIMSAHGFRAMARTVLTERLGFRA | failed
19 | MIRHLLVAHDLTPEADVALARAAQLARQHDARVSLLHVYDPGLSASAVKTVSAMLQLKRKEAGLDEDSAIHLFRGQPIDGILQQTRALEPDLLLMGAHHQKTFERFGNTTLDQVVRRSRVPVLLAVREADEPYRQALSALDFSQCACTALRQAYRLLPVEADLHALHVFESPDDGVLGLPRQNAAHLATQAGLIEQLLSDEQERLPGVGPQLSHEVVPGVLPYSLDAALKQRQPELLALGRHSRNALMQALLGNLAQRYLRQPSCDVLVTS | failed
